The values that follow come from paper PMC9242855, “Mechanism of replication origin melting nucleated by CMG helicase assembly” (Nature, 2022).

Holding throughout (assay): cryo-EM structure; dCMGE assembled from purified yeast proteins on nucleosome-flanked (chromatinized) ARS1 origin DNA with 5 mM ATP; undiluted CMG assembly reaction frozen on grids; dimer map at limited resolution, symmetry-expanded CMGE at 3.5 Å
Series [1] concerns the molecule itself.
Series [2] has as its target T1, Mcm3 (S. cerevisiae, UniProt P24279 1-971).
T1 construct: Mcm3, subunit of the yeast MCM (Mcm2–7) helicase; Subunit seen within the dCMGE structure; source: purified within Mcm2–7–Cdt1 on the basis of previously established protocols
The following applies: both partners purified.

The target of series [3] is T2, Mcm4 (S. cerevisiae, UniProt P30665 1-933).
T2 construct: Mcm4, subunit of the yeast MCM (Mcm2–7) helicase; Subunit seen within the dCMGE structure; source: purified within Mcm2–7–Cdt1 on the basis of previously established protocols
T2 sequence: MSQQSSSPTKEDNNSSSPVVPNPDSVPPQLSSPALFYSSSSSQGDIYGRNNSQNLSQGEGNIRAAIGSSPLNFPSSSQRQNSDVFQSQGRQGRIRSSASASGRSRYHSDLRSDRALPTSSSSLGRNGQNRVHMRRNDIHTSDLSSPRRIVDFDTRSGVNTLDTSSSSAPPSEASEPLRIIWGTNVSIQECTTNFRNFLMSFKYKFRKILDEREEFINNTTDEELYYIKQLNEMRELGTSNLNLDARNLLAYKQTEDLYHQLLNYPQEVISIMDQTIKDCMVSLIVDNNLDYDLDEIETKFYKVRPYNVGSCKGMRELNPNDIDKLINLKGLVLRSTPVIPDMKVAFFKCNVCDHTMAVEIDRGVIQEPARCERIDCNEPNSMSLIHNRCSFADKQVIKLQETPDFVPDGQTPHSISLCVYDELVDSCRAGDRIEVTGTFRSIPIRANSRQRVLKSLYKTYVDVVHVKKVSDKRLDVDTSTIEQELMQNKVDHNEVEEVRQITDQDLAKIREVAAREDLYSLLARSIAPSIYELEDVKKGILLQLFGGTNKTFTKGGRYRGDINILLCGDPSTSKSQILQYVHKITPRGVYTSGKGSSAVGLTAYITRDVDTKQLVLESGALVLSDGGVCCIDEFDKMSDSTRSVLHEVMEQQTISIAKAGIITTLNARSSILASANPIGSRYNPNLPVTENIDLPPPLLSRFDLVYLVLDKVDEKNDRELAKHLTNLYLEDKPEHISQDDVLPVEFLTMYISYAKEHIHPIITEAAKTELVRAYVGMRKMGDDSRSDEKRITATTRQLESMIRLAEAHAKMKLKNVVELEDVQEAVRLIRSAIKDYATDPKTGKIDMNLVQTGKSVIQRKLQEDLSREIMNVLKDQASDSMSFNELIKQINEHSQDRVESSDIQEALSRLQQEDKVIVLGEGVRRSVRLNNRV
The following applies: both partners purified.

T1 sequence (P24279 whole entry): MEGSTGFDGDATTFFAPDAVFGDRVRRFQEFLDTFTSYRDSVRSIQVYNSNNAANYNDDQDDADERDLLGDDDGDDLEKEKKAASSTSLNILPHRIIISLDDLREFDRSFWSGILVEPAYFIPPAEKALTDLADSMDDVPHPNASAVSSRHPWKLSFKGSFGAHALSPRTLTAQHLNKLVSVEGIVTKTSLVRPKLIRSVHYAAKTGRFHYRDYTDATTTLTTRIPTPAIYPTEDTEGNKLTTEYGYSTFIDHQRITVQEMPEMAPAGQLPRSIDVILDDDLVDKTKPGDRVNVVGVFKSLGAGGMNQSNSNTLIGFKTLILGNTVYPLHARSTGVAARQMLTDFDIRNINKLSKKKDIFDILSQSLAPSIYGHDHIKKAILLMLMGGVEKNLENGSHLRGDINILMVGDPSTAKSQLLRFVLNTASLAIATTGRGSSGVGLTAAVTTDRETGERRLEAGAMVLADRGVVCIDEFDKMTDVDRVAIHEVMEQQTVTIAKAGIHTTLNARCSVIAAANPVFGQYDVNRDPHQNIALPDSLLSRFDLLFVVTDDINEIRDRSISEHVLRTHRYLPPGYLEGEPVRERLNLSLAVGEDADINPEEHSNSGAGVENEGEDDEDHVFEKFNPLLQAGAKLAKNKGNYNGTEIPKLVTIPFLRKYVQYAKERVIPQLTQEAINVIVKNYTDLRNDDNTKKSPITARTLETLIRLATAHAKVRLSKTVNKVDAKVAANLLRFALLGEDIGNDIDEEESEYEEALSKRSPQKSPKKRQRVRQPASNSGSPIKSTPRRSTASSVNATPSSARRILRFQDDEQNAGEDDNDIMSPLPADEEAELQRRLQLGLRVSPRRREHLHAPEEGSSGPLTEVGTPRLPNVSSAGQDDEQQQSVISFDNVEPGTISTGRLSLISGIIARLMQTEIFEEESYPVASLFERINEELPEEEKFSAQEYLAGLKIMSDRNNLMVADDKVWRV

B1: Mcm6 (natural protein, S. cerevisiae)
chain: MSSPFPADTPSSNRPSNSSPPPSSIGAGFGSSSGLDSQIGSRLHFPSSSQPHVSNSQTGPFVNDSTQFSSQRLQTDGSATNDMEGNEPARSFKSRALNHVKKVDDVTGEKVREAFEQFLEDFSVQSTDTGEVEKVYRAQIEFMKIYDLNTIYIDYQHLSMRENGALAMAISEQYYRFLPFLQKGLRRVVRKYAPELLNTSDSLKRSEGDEGQADEDEQQDDDMNGSSLPRDSGSSAAPGNGTSAMATRSITTSTSPEQTERVFQISFFNLPTVHRIRDIRSEKIGSLLSISGTVTRTSEVRPELYKASFTCDMCRAIVDNVEQSFKYTEPTFCPNPSCENRAFWTLNVTRSRFLDWQKVRIQENANEIPTGSMPRTLDVILRGDSVERAKPGDRCKFTGVEIVVPDVTQLGLPGVKPSSTLDTRGISKTTEGLNSGVTGLRSLGVRDLTYKISFLACHVISIGSNIGASSPDANSNNRETELQMAANLQANNVYQDNERDQEVFLNSLSSDEINELKEMVKDEHIYDKLVRSIAPAVFGHEAVKKGILLQMLGGVHKSTVEGIKLRGDINICVVGDPSTSKSQFLKYVVGFAPRSVYTSGKASSAAGLTAAVVRDEEGGDYTIEAGALMLADNGICCIDEFDKMDISDQVAIHEAMEQQTISIAKAGIHATLNARTSILAAANPVGGRYNRKLSLRGNLNMTAPIMSRFDLFFVILDDCNEKIDTELASHIVDLHMKRDEAIEPPFSAEQLRRYIKYARTFKPILTKEARSYLVEKYKELRKDDAQGFSRSSYRITVRQLESMIRLSEAIARANCVDEITPSFIAEAYDLLRQSIIRVDVDDVEMDEEFDNIESQSHAASGNNDDNDDGTGSGVITSEPPADIEEGQSEATARPGTSEKKKTTVTYDKYVSMMNMIVRKIAEVDREGAEELTAVDIVDWYLLQKENDLGSLAEYWEERRLAFKVIKRLVKDRILMEIHGTRHNLRDLENEENENNKTVYVIHPNCEVLDQLEPQDSS
notes: Mcm6, subunit of the yeast MCM (Mcm2–7) helicase; Subunit seen within the dCMGE structure; source: purified within Mcm2–7–Cdt1 on the basis of previously established protocols
As to B1, in series [1], the binding result was “binds”.

B2: Mcm7 (natural protein, S. cerevisiae)
chain: MSAALPSIQLPVDYNNLFNEITDFLVTFKQDTLSSDATRNENEDENLDAENIEQHLLEKGPKYMAMLQKVANRELNSVIIDLDDILQYQNEKFLQGTQADDLVSAIQQNANHFTELFCRAIDNNMPLPTKEIDYKDDVLDVILNQRRLRNERMLSDRTNEIRSENLMDTTMDPPSSMNDALREVVEDETELFPPNLTRRYFLYFKPLSQNCARRYRKKAISSKPLSVRQIKGDFLGQLITVRGIITRVSDVKPAVEVIAYTCDQCGYEVFQEVNSRTFTPLSECTSEECSQNQTKGQLFMSTRASKFSAFQECKIQELSQQVPVGHIPRSLNIHVNGTLVRSLSPGDIVDVTGIFLPAPYTGFKALKAGLLTETYLEAQFVRQHKKKFASFSLTSDVEERVMELITSGDVYNRLAKSIAPEIYGNLDVKKALLLLLVGGVDKRVGDGMKIRGDINVCLMGDPGVAKSQLLKAICKISPRGVYTTGKGSSGVGLTAAVMKDPVTDEMILEGGALVLADNGICCIDEFDKMDESDRTAIHEVMEQQTISISKAGINTTLNARTSILAAANPLYGRYNPRLSPLDNINLPAALLSRFDILFLMLDIPSRDDDEKLAEHVTYVHMHNKQPDLDFTPVEPSKMREYIAYAKTKRPVMSEAVNDYVVQAYIRLRQDSKREMDSKFSFGQATPRTLLGIIRLSQALAKLRLADMVDIDDVEEALRLVRVSKESLYQETNKSKEDESPTTKIFTIIKKMLQETGKNTLSYENIVKTVRLRGFTMLQLSNCIQEYSYLNVWHLINEGNTLKFVDDGTMDTDQEDSLVSTPKLAPQTTASANVSAQDSDIDLQDA
notes: Mcm7, subunit of the yeast MCM (Mcm2–7) helicase; Subunit seen within the dCMGE structure; source: purified within Mcm2–7–Cdt1 on the basis of previously established protocols
For B2, the binding result in series [2] and in series [3] was “binds” in each case.
